Data published in paper PMC10720262 (Cell Reports, 2023).

Molecular target: recombinant full-length PfCSP (Plasmodium falciparum circumsporozoite protein, strain NF54) (Plasmodium falciparum NF54, UniProt P19597)
Sequence (P19597 20-375): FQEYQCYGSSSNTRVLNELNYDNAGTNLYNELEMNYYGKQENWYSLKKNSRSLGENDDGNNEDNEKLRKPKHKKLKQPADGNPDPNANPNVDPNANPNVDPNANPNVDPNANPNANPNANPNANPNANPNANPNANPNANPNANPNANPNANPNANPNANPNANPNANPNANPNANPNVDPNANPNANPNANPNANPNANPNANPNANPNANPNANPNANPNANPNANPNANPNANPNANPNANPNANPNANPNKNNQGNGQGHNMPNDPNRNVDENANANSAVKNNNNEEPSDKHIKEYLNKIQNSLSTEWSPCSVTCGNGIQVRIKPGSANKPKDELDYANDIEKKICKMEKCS

Row | Binder | binding result
1 | CL-437092 (antibody, V domains shown) VH: QVQLVESGGGVVQPGGSLRLSCAASGFTLSSFGIHWVRQAPGKGLEWVALIWHDGSMKYYADSVKGRFTISRDNSKNTVDIQMNSLRVEDTAVYYCARPGIGSPGDHYTMDVWGHGTTVTVSS VL: not shown | binds
2 | CL-444691 (antibody, V domains shown) VH: QVQLVESGGGVVQPGRSLRLSCAASGFTFSNYGMHWVRQAPGKGLEWVAVIWYDGSNKFYADSVKGRFTISRDNSKNTLYLQMNSLRAEDTAVYYCARDGGYNKNSGSYGWFDPWGQGTLVTVSS VL: DIQMTQSPSTLSASVGDRVTITCRASQSVSTWLAWYQQKPGKAPKLLIYKASSLESGVPSRFSGSGSGTEFTLTISSLQPDDFATYYCQQYNSYFTFGQGTRLEIK | binds
3 | CL-444592 (antibody, V domains shown) VH: QVQLVESGGGVVQPGRSLRLSCAASGFTFSSYGMHWVRQAPGKGLEWVAVIWYDGSNKYYADSVKGRFTISRDNSKNTLYLQMNSLRAEDTAVYYCARDGNWNYNYYYGMDVWGQGTTVTVSS VL: DIQLTQSPSFLSASVGDRVTITCWASQGISSYLAWYQQKPGKAPKLLIYAASTLQSGVPSRFSGSGSGTEFTLTISSLQPEDFATYYCQQLNSYPPTFGQGTRLEIK | binds
4 | CL-444387 (antibody, V domains shown) VH: QVHLVESGGGVVQPGRSLRLSCVASGFSFSSYGMHWVRQAPGKGLEWVAIIWYDGSYTYYADSVKGRFTISRDNSKNTLYLQMNSLRVEDTAVYYCAKVGLSYNGRTGAFDIWGQGTMVTVSS VL: not shown | binds
5 | CL-437862 (antibody, V domains shown) VH: QVQLVESGGGVVQPGRSLRLSCAASGFTFSNSGMHWVRQVPGKGLEWVAIIWYDGGNKYYADSVKGRFTISRDNSKNTLYLQMNSLRAEDTAVYYCARAYYDILTSYDKDCCYGMDVWGQGTTVTVSS VL: not shown | binds
6 | CL-437934 (antibody, V domains shown) VH: QVQLVASGGAVVQPGRSLRLSCAASGFTFSNSGMHWVRQAPGQGLEWVAIIWYDGGNKYYADSVKGRFTISRDNSKNTLYLQMNSLRAEDTAVYYCVRAYYEILTTYNKDCCYGMDVWGQGTTVTVSS VL: not shown | binds
7 | CL-437907 (antibody, V domains shown) VH: QVQLVESGGGVVQPGRSLRLSCVASGFTFSHSGMHWVRQTPGKGLEWVAIIWHDGSIKYYVESVKGRFTISRDNSKNTLYLEMRSLRAEDTAVYFCVRSYSESLYDKYGMDVWGQGTTVTVSS VL: DIQMTQSPSTLSASVGDRVTISCRASQSISSWLAWFQQKPGKAPKLLIYAASSLQSGVPSRFSGSGSGTDFTLTISSLQPDDFATYYCQQFNSYWTFGQGTKVEVK | binds
8 | CL-444639 (antibody, V domains shown) VH: QVQLVESGGGVVQPARSLRLSCAASGFTFSSYGMHWVRQAPGKGLEWVAVIWYDGSNKYYADSVKGRFTISRDNSKNTLYLQMNSLRAEDTAVYYCAKVGDFYGSGSYPHYYGMDVWGQGTTVTVSS VL: not shown | binds
9 | CL-437492 (antibody, V domains shown) VH: QEQLVESGGGVVQPGNSLRLSCVASGFTFSNHGMHWVRQAPGKGLEWVAIIWYDGSQKFYSDSVKGRFTISRDNSKNTLYLQMNSLRAEDTAIYYCARVDWSGNDWGWFDPWGQGTLVTVSS VL: EIVLTQSPDTLSLSPGERATLSCRASQTLSSRHLAWYQQKPGQAPRLLIYGASSRATGIPDRFSGSGSGTDFTLTINRLEPEDFAVFYCQQYGRLWTFGQGTKVEIK | binds
10 | CL-441816 (antibody, V domains shown) VH: QEQLVESGGGVVQPGRSLRLSCATSGFTFSTYGLHWVRQSPGKGLEWVTVIWYDGSNKFYADSVKGRFTISRDNSKNTLYLQMNSLRAEDTAVYYCARALYSSRWYGAFDIWGQGTMVTVSS VL: QSVLTQPPSVSGAPGQRVTISCTGSSSNIGAGYDVHWYQLLPGTAPKLLIYGNSNRPSGVPDRFSGSKSGTSASLAITGLQAEDEADYYCQSYIRSLSGSVFGGGTKLTVL | binds
11 | CL-444424 (antibody, V domains shown) VH: QVQLVESGGGVVQPGRSLRLSCTASGFTFSNYGMHWIRQAPGKGLEWVAIIWFDGSSQYYADSVKGRFTISRDNSKNTLYLQMNSLRAEDTAVYYCVRALYDSGSLFDFWGLGTLVTVSS VL: DIQMTQSPSTLSASVGDRVTITCRASQNISSLLAWYQQKPGKAPKLLIYKASSLESGVPSRFSGNGSGTEFTLTVSSLQPDDFATYSCLQYNNYWTFGQGTKVEIK | binds
12 | CL-441734 (antibody, V domains shown) VH: QVQLVESGGGVVQPGRSLRLSCAASGFTFSSHGMHWVRQAPVKGLEWVAVIWYDGSNKYYADSVKGRFTISRDNSKNTLYLQMNSLRAEDTAVYYCARVEYSRSSGDYYYYGLDVWGQGTTVTVSS VL: EIVMTQSPATLSVSPGERATLSCRASQSVSSNLAWYQQKPGQAPRLLIYGASTRATGIPARFSGSGSGTEFTLTISSLQSEDFAVYYCQQYDNWWTFGQGTKVEIK | binds
13 | CL-440422 (antibody, V domains shown) VH: QVQLVESGGGVVQPGRSLRLSCAASGFTFSNFGMHWVRQTPDRGLEWVAIIWFDGSNTFYTDSVKGRFTISRDNYMNTLYLQMNSLRAEDTAVYYCARSFYSDSAGSLFDYWGQGTLVTVSS VL: DIQMTQSPSTLSASVGDRVTITCRASQNINNWVAWYQQKPGKAPKLLIYKASDLETGVPSRFSGSGSGTEFTLTISGLQPDDFATFYCLQNNHYWTFGQGTKVEIK | binds
14 | CL-442127 (antibody, V domains shown) VH: QAQLVESGGGVVQPGKSLRLSCAASRFTFRNYGMHWVRQGPVKGLEWVALIWHDGSNKFYSDSVRDRFTISRDNSKNKLFLQMNSLTADDTALYYCVRSNYDGSGTYGWFGPWGQGTLVTVSS VL: EIVLTQSPGTLSLSPGERATLSCRASQSVISNYLAWYQQKPGQAPRLLIYGASTRDIGIPDRFSGSGSGTDFTLTISRLEPEDFAVYFCHQYGSSFTFGPGTKVDFK | binds
15 | CL-438145 (antibody, V domains shown) VH: QVQLVESGGGVVQPGRSLRLSCAASGFTFSDYGMHWVRQAPGKGLEWVAIIWYDGSNKYYAASVKDRFIISRDNFKNTLYLQMNSLRAEDTAVYYCARVNFDDSGSWDYWGQGTLATVSS VL: DIQMTQSPSTLSASVGDRVTITCRASQNINTRLAWYQQKVGTAPKLLIYTASSLESGVPSRFSGSGSGTEFTLTISSLQPDDFATYYCQQYYRYWTFGQGTKVEIK | binds
16 | CL-440324 (antibody, V domains shown) VH: QVQLVESGGGVVQPGRSLRLSCAASGFTFRNHGLHWVRQAPGKGLEWVAIIWFDGSNKFYADSVKGRFTISRDNSKNTLYLQMNSLRAEDTAIYYCARVSSHDNGDYGDFDYWGQGTLVTVSS VL: DIQMTQSPSTLSASVGDRVTITCRASQNISNWLAWYQQKPGKAPKLLIYKASSLESGVPSRFSGSGSGTEFTLTISGLQPDDFATYYCQQYKTYWTFGQGTQVEIK | binds
17 | CL-440582 (antibody, V domains shown) VH: QVQLVESGGGVVQPGRSLRLSCAASGFTLNNYGIHWVRQAPGKGLEWLSLIWYDGSNKFYADSVKGRFTVSRDNSQNTVSLHMSSLSVDDTAVYYCARPGIGVPGDKYTMDVWGQGTTVTVSS VL: DIQMTQSPSTLSASVGDRVTITCRASQTISAWLAWYQQKLGKAPKILIYKASILESGVPSRFSGSGSGTEFTLTINSLQPDDFATYYCQQYNYDWTFGQGTKVEIN | binds
18 | CL-437899 (antibody, V domains shown) VH: QEQLVESGGGVVQPGRSLRLSCEVSGFTFSNHGLHWVRQAPGKGLEWVAIIWYDGSNKFYAESVKGRFTISRDNSKNRMYLEMNSLRVEDSAVYYCVRAYSRSSSDYKYGMDVWGQGTTVTVSS VL: DIQMTQSPSTLSASVGDRVIITCRASQSISSWLAWYQQRPGKAPELLIYKASSLETGVPSRFSGSGSGTEFTLTISSLQPDDFATYFCQQYSSYWTFGQGTKVEIK | binds
19 | CL-444469 (antibody, V domains shown) VH: QVQLVESGGGVVQPGRSLRVSCEVSGLTFSNYGMHWVRQAPGKRLEWVAIIWYDGSNKYYADSVKGRFTISRDNSKNTLYLQMNSLRAEDTAVYYCARSYGSGSRGDYYGMDVWGQGTTVTVSS VL: DIQMTQSPSTLSASVGDRVTITCRASQSISSWLAWFQQKPGKAPKLLIYKASSLESGVPSRFSGSGSGTEFTLTISSLQPDDFATYYCQQYYSYWTFGQGTKVEIK | binds
20 | CL-438096 (antibody, V domains shown) VH: QVVLVESGGGVVQPGRSLRLSCEASGFIFSSRGMHWVRQTPGKGLEWVAIIWYDGSNKFYADSVKGRFTISRDNSKNTLYLQMNSLRAEDTAVYYCARSYRTSLDKKYGMDVWGQGTTVTVSS VL: DIQMTQSPSTLSASVGDRVTITCRASQSISSWLAWYQQKPGKAPKLLIYKASSLESGVPSRFSGSGSGTEFTLTISSLHPDDFATYFCQQYNSYWTFGQGTKVEIK | binds
21 | CL-444588 (antibody, V domains shown) VH: QVQLVESGGGVVQPGRSLRLSCAASGFTFSGYGMHWVRQTPGKGLGWVALIWYDGSNKFYADSVRGRFTISRDNSKNTLYLQMNSLRAEDTAIYYCARSYPSGSRGDKYGMDVWGQGTTVTVSL VL: DIQMTQSPSTLSASVGDRVTITCRASQSISTWLAWFQQKPGKAPKLLIYKASSLESGVPSRFTGSGSGTEFTLTISSLQPDDFATYYCQQYNSYWTFGQGTKVEIK | binds
22 | CL-444653 (antibody, V domains shown) VH: QVQLVESGGGVVQPGRSLRLSCTASGFTFSTYGMHWVRQAPGKGLEWVAIIWYDGGNKFYADSVKGRFTISRDNSKDTLYLQMNSLRAEDTAVYYCAKAWYKVDDKYSMDVWGQGTTVTVSS VL: DIQMTQSPSTLSASVGDRVTITCRASQSISSWLAWYQQKPGKAPKLLIYKASSLESGVPSRFSGSGSGTEFTLTISGLQPDDFATYYCQQYINYWTFGQGTKVEIK | binds
23 | CL-437716 (antibody, V domains shown) VH: QVHLVESGGGVVQPGRSLRLSCAASGFIFSNSGMHWVRQVPGKGLEWVAIIWYDGSNKYYADSVKGRFTISRDNSKNTLYLQMNSLRAEDTAVYYCVRAYSSSSSYYYGMDVWGQGTTVTVSS VL: not shown | binds
24 | CL-437762 (antibody, V domains shown) VH: QVQLVESGGGVVQPGRSLRLSCAASGFTFSNYGMYWVRQAPGKGLEWVAVIWYDGSNKYYADSVKGRFTISRDNSKNTLYLQMNSLRAEDTAFYYCARPQYSGSGSYFDYWGQGTLVTVSS VL: not shown | binds
